In IntAct's records for PubMed 29178645:

B1: Protein SHQ1 homolog (Homo sapiens), Q6PI26 (parent)
chain: MLTPAFDLSQDPDFLTIAIRVPYARVSEFDVYFEGSDFKFYAKPYFLRLTLPGRIVENGSEQGSYDADKGIFTIRLPKETPGQHFEGLNMLTALLAPRKSRTAKPLVEEIGASEIPEEVVDDEEFDWEIEQTPCEEVSESALNPQCHYGFGNLRSGVLQRLQDELSDVIDIKDPDFTPAAERRQKRLAAELAKFDPDHYLADFFEDEAIEQILKYNPWWTDKYSKMMAFLEKSQEQENHATLVSFSEEEKYQLRKFVNKSYLLDKRACRQVCYSLIDILLAYCYETRVTEGEKNVESAWNIRKLSPTLCWFETWTNVHDIMVSFGRRVLCYPLYRHFKLVMKAYRDTIKILQLGKSAVLKCLLDIHKIFQENDPAYILNDLYISDYCVWIQKVKSKKLAALAEALKEVSLTKAQLGLELEELEAAALLVQEEETALKAAHSVSGQQTLCSSSEASDSEDSDSSVSSGNEDSGSDSEQDELKDSPSETVSSLQGPFLEESSAFLIVDGGVRRNTAIQESDASQGKPLASSWPLGVSGPLIEELGEQLKTTVQVSEPKGTTAVNRSNIQERDGCQTPNN
partner: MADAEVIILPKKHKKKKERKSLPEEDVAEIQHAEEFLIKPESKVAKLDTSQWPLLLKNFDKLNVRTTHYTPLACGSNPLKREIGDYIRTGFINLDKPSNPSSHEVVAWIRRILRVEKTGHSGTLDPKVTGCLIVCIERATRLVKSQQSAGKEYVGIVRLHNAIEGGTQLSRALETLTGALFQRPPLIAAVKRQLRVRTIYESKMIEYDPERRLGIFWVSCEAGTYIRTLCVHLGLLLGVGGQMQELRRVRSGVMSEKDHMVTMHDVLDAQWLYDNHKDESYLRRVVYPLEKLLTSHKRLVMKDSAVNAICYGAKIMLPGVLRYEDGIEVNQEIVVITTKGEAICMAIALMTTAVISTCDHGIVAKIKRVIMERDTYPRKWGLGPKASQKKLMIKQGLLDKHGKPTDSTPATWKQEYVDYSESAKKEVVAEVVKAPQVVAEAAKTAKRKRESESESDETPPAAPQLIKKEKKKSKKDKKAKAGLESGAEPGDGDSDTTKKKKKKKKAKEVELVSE

Variants of: B1
Settings: with dkc1_human DKC1, O60832

effect of a mutation on the interaction	Variant
decreasing interaction strength	R335C;A426V
decreasing interaction strength	R335C
decreasing interaction strength	A426V
